This note sets out measurements from patent US20040235064A1 (YALE UNIVERSITY, published 2004).

The target of this assay is T1, CZGFP (Aequorea victoria (GFP part); CZ helix …).
T1 construct: Expressed in E. coli BL21(DE3) and purified for the in vitro assays; expressed from a pET11a plasmid in the colony assays; also called EK-CGFP; C-terminal GFP fusion peptide
Put plainly: competition: EK peptide added to refolding NZGFP/CZGFP complex (4 µM), fluorescence at 505 nm; competitor of NZGFP. How it is done: For inhibition experiments all fluorescence measurements were made in triplicate on a Hitachi F-4500 Fluorescence Spectrophotometer with excitation at 475 nm and emission at 505 nm. A 1.2 mM stock solution of equimolar amounts of NZGFP/CZGFP was allowed to reassemble and fluoresce until there was no change in fluorescence (36 hours). The reassembled complex was denatured in 4 M GdmHCl for 4 hours following which different concentrations of EK peptide, NGFP, or CGFP were added and the NZGFP/CZGFP concentration adjusted to 800 μM. The samples were diluted 200 fold into 2 mM DTT, 10 mM Tris.HCl buffer at pH 7.2 to a 20 mM final concentration of Gdm.HCl and allowed to refold and fluoresce. In order to eliminate artifacts from time dependent inhibition, fluorescence measurements were made after 4 hours and after 16 hours and found to be constant.
To verify that the GRIP assay could be utilized for detecting inhibitors of protein-protein interactions (Zutshi, R., et al., 1998, Curr. Opin. Chem. Biol. 2, 62-66), a LZ peptide corresponding to the LZ present in NZGFP (FIG. 4) was synthesized. The reappearance of fluorescence of the disassembled NZGFP/CZGFP complex in an in vitro assay as a function of added peptide was monitored (FIG. 6). The EK peptide (SEQ ID NO: 1) prevented the assembly of the complex (4 μM) with an IC₅₀ value of 31 μM. […]

T1 sequence (chain, as listed by the source): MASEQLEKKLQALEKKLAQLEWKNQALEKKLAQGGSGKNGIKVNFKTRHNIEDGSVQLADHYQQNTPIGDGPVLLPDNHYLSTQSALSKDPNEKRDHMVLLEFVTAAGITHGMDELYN

B1: EK peptide (peptide)
peptide: ALKKELQANKKELAQLKWELQALKKELAQ
notes: Chemically synthesized and HPLC purified; also called LZ peptide
B1: the IC50 – broadly, the midpoint of a concentration-inhibition curve – is 31 µM.
